Data from patent US6673357B2, “Alkaloid glycoside for use as a medicament” (University of Southampton, priority 1996, dated 2004).

Tested on: ovalbumin-transfected EL4 (C57BL/6, H-2b thymoma) monoclonal murine cell line
Experiment: Cytotoxicity assay: T lymphocyte-mediated 51Cr release with spleen cells from immunised mice
Assay type: cell-based
Conditions: means of triplicate determinations
Protocol: Cytotoxic activity mediated by T lymphocytes was measured using the ovalbumin-transfected EL4 (C57BL/6, H-2b thymoma) monoclonal murine cell line as a target. Untransfected EL4 cells were used as negative controls. Spleen cells (3×10^7) from normal or immunised mice primed 14 days earlier were incubated with 1.5×10^6 irradiated (200 Gy) 15-12 cells (gp160 transfectants) or 3T3 cells (which served as controls) for 5 days. Target cells (1×10^6) were labelled with 100 μCi ^51Cr. Target cells were washed three times in RPMI 1640 medium, diluted to 2×10^5 cells/ml, and 50μ (10^4) of target cells added to each microtitre well containing antigen or peptide (10 μM) and preincubated for 30 min. Effector cells were resuspended in complete mdium (CM) to yield a range of effector: target (E:T) ratios. Target cells (10^4) were then incubated at different E:T ratios in a total volume of 200 μl of 10% CM for an additional 4 h. Supernatants (100 μl) were collected and counted for ^51Cr release. Spontaneous release and maximal release values were determined by incubating target cells in 10% CM alone or 0.1% Triton X-100. Percent Cytotoxicity was calculated using the formula: […]
where ER is experimental release, SR is spontaneous release and […] release. The results shown are shown in Table 4 and represent the means of triplicate determinations.

B1: antigen only: antigen (ovalbumin, OVA) given without adjuvants (protein, UniProt P01012 2-386, looked up)
Ovalbumin: GSIGAASMEFCFDVFKELKVHHANENIFYCPIAIMSALAMVYLGAKDSTRTQINKVVRFDKLPGFGDSIEAQCGTSVNVHSSLRDILNQITKPNDVYSFSLASRLYAEERYPILPEYLQCVKELYRGGLEPINFQTAADQARELINSWVESQTNGIIRNVLQPSSVDSQTAMVLVNAIVFKGLWEKAFKDEDTQAMPFRVTEQESKPVQMMYQIGLFRVASMASEKMKILELPFASGTMSMLVLLPDEVSGLEQLESIINFEKLTEWTSSNVMEERKIKVYLPRMKMEEKYNLTSVLMAMGITDVFSSSANLSGISSAESLKISQAVHAAHAEINEAGREVVGSAEAGVDAASVSEEFRADHPFLFCIKHIATNAVLFFGRCVSP
% of Cytotoxic lysis (E:T ratio 25:1): 19%
% of Cytotoxic lysis (E:T ratio 50:1): 30%
% of Cytotoxic lysis (E:T ratio 100:1): 45%
